Legend:
Format in all cases: biochemical, Quillaja saponaria
[1] = Experiment 4-4: screening of glucosidases for deglycosylation of QS-18 in crude bark extract (1 in 20 dilution) to QS-21; settings: CBE 1 in 20 dilution, pH 6, 25 degC, 18 hours; % conversion of Middle Peak by UV HPLC
Protocol: Lysates were prepared as in Experiment 4-2.
Crude bark extract (CBE) was adjusted to pH 6 by dropwise addition of 2M NaOH with stirring. 25 uL of clarified lysate was transferred to a reaction plate, 22.5 ul of 100 mM potassium phosphate buffer pH 6 was added, 2.5 ul CBE at pH 6 was added. Reaction plates were sealed, incubated at 25 degC with shaking for 18 hours, then quenched by addition of 50 uL acetonitrile (MeCN). Quenched reaction plates were re-sealed and incubated at 20 degC with shaking for 10 min. The reaction plates were centrifuged (10 min, 4 degC) and analysed by UV HPLC with the method below:
Three key peaks of interest are apparent using this chromatography: Left Peak (retention time approximately 2.30-2.35 min) comprising mainly QS-17 family components; Middle Peak (retention time approximately 2.37-2.42 min) comprising mainly QS-18 family components and desglucosyl-QS-17 family components; and Right Peak (retention time approximately 2.44-2.50 min) comprising mainly QS-21 family components. Peak identity was supported by MS/MS.
Enzyme activity is calculated as the % conversion of the Middle Peak present in the crude bark extract: […]

[2] = Experiment 4-1: screening of glucosidases for deglycosylation with purified QS-18 (0.04 mg/ml) at pH 7.5 and room temperature; settings: pH 7.5, room temperature, 20 h, clarified E. coli lysate, QS-18 2150 to QS-21 1988 by LCMS/MS
Protocol: Nucleotide sequences were sub-cloned into pET24b+ for expression. 10 uL of E. coli cells (One Shot® BL21(DE3) chemically competent E. coli) were transferred to each well of a 96 well PCR plate (prechilled on ice). 10 uL autoclaved water was added to the DNA, resuspended by pipetting, and 1 uL of plasmid DNA (15-30 ng) was transferred to the competent cells. Immediately after addition, the resulting mixture was mixed by pipetting. Cells were heat shocked by placing the plate in a thermal cycler at 42° C. for 30 seconds then transferred directly to an ice bath for 2 min. 100 uL sterile Lysogeny Broth (LB) medium was added to each well containing transformed cells. The content of each plate was transferred into a 96-deep well plate pre-aliquoted with 400 uL LB and the plate was incubated at 37° C. with shaking and 85% humidity for 1 hour. After outgrowth, 500 uL of sterile LB containing 100 ug/mL kanamycin was added to the plates containing cells and plates incubated at 37° C. with shaking overnight (18 hours) with humidity control (85%).
1000 mLs of Overnight Express Media was supplemented with 1 mL kanamycin 50 mg/mL and 20 mL of 50% v/v glycerol added (50 ug/mL kanamycin final and 1% glycerol). 96-Well Assay Block 2 mL plates were aliquoted with 380 uL of media per well. Pre-inoculum (20 uL) from transformation plates was added. The plates were sealed appropriately and incubated at 37° C. at 300 with shaking for 2 h. After 2 h the temperature was lowered to 20° C. and incubation continued for 20 h.
The liquid cultures were centrifuged for 10 minutes at 4° C. The supernatant was discarded, plates blotted on an absorbent material to remove residue and the plates frozen at −80° C.
Lysis buffer was prepared according to the following protocol: • 1. Polymyxin B sulphate (0.5 mg/mL) was suspended in 100 mM potassium phosphate pH 7.5 • 2. The mixture was sonicated until polymyxin B sulphate had dissolved • 3. Lysozyme (1 mg/mL) and benzonase (0.1 uL/mL lysis buffer) were added
2 copies of each cell pellet plate were removed from −80 degC freezer and allowed to thaw. 200 uL of lysis buffer was added to each well of one copy of the cell pellet plates. Plates were shaken at room temperature for 10 mins. 190 uL of cell pellet/lysis buffer was transferred to a corresponding fresh cell pellet plate. These plates were incubated at room temperature with shaking for 2 hours. Lysate was clarified by centrifugation (10 min, 4 degC).
QS-18 was obtained by analogous methods to Example 3, collecting a QS-18 containing phenyl fraction following phenyl treatment (presence of m/z corresponding to key components was confirmed by MS and the phenyl fraction then used without further treatment). QS-18 solution was prepared by diluting aqueous QS-18 (ca 1 mg/mL) with 100 mM potassium phosphate pH 7.5 to 0.2 mg/ml. 40 uL clarified lysate was transferred into fresh 96 well PCR plates. 10 uL QS-18 solution added to each well of lysate to a final concentration of 0.04 mg/ml. Incubated at room temperature with shaking for 20 h. Quenched with 50 uL MeCN and shaken at room temperature for 10 mins. Samples were analysed by LC-MS/MS using a Waters Acquity H class coupled to a Waters Xevo Tandem Quadrupole (TQD) Mass Spectrometer.
Enzyme activity was calculated as: […]
Candidate enzymes with % conversion >0.72%, i.e. >3 S.D. above negative control, were considered to be positive hits and are listed below in Table 7. Sample results are shown in FIG. 10 for a QS-21 standard, FIG. 11 for negative control and FIG. 12 for treatment with the glucosidase of SEQ ID No. 262.

[3] = Experiment 4-2: screening of glucosidases for deglycosylation with purified QS-18 (1 mg/ml) at pH 6 and 30 deg C; settings: pH 6, 30 degC, 18 hrs, clarified lysate, LCMS/MS
Protocol: Lysates were prepared in an identical manner to Experiment 4-1 above, except the lysis buffer was prepared in 100 mM potassium phosphate buffer pH 6. QS-18 solution was prepared by dissolving QS-18 in 100 mM potassium phosphate buffer pH 6 (2 mg/mL).
12 uL clarified lysate was transferred into fresh 96 well PCR plates. 12 uL QS-18 solution was added (1 mg/ml final concentration), plates sealed and incubated overnight (30° C.) for 18 hrs. After quenching with 25 uL MeCN and shaking for 10 mins (RT), samples were analysed using the LC-MS/MS protocol described in Experiment 4-1 and enzyme activity determined in an analogous manner.

| Molecule | Expt 4-4 % conv [1] | Expt 4-1 % conv [2] | Expt 4-2 % conv [3] |
| --- | --- | --- | --- |
| 324 (protein, listed as Kluyveromyces marxianus) MSKFDVEQLLSELNQDEKISLLSAVDFWHTKKIERLGIPAVRVSDGPNGIRGTKFFDGVPSGCFPNGTGLASTFDRDLLETAGKLMAKESIAKNAAVILGPTTNMQRGPLGGRGFESFSEDPYLAGMATSSVVKGMQGEGIAATVKHFVCNDLEDQRFSSNSIVSERALREIYLEPFRLAVKHANPVCIMTAYNKVNGEHCSQSKKLLIDILRDEWKWDGMLMSDWFGTYTTAAAIKNGLDIEFPGPTRWRTRALVSHSLNSREQITTEDVDDRVRQVLKMIKFVVDNLEKTGIVENGPESTSNNTKETSDLLRKIAADSIVLLKNKNNILPLKKEDNIIVIGPNAKAKTSSGGGSASMNSYYVVSPYEGIVNKLGKEVDYTVGAYSHKSIGGLAESSLIDAAKPADAENSGLIAKFYSNPVEERSDDEEPFHVTKVNRSNVHLFDFKHEKVDPKNPYFFVTLTGQYVPQEDGDYIFSLQVYGSGLFYLNDELIIDQKHNQERGSFCFGAGTKERTKKLTLKKGQVYNVRVEYGSGPTSGLVGEFGAGGFQAGVIKAIDDDEEIRNAAELAAKHDKAVLIIGLNGEWETEGYDRENMDLPKRTNELVRAVLKANPNTVIVNQSGTPVEFPWLEDANALVQAWYGGNELGNAIADVLYGDVVPNGKLSLSWPFKLQDNPAFLNFKTEFGRVIYGEDIFVGYRYYEKLQRKVAFPFGYGLSYTTFELDISDFKVTDDKIAISVDVKNTGDKFAGSEVVQVYFSALNSKVSRPVKELKGFEKVHLEPGEKKTVNIDLELKDAISYFNEELGKWHVEAGEYLVSVGTSSDDILSVKEFKVEKELYWKGL | <3% | 13.6% | 0.9% |
| 302 (protein, listed as Rhodococcus sp.) MTTRPDLTLEQQAALLSGHDFWSTEAIEEAGIPSVVLTDGPHGVRYQSGDSDHLGLHASLPATCFPLAVAVGSSWDRSVAEEVGRAVGREARALGVHVVLGPGVNIKRSPLCGRNFEYYSEDPLLSGVLGAAHVRGLQSVGVGACVKHFAANNQETDRMRVSADVDDRTLREIYLPAFERVVAEARPAAVMCSYNKVNGVSAAENRWLLTEVLREQWGFAGVVVSDWGAVADRVAGVTAGLDLEMPGSGGGTDRQVVDAVRDGRLDPRLVEASAHRVLALSDLVRPAAGDLDLDGQHALARRLAADCAVLLKNADGVLPLRRGQHVAVLGSFATTPRFQGGGSSHIAPTRVDPALDAVRALAAAHGLTVSAADGFPLGADGDARALLDEAVRVAAAADVAVVFAGLTEREESEGFDRDTLDLPPVQVALVRAVARAAPRTVVVLAHGGVVSLEGWHDEVDAILDGWLLGQAGGSAIADLLLGVATPSGHLAETVPLRLEDTPSYLNFPGEQGHVRYGEGVMVGYRGYETLRRAVRYPFGHGLSYTTFVTESLDVALGGDGTVAVRVRVRNAGDRAGKHVVQMYVATDAGPVRRPVRELRAFEKIELAPGEARDVELTLERRAFAYWDVELDDWVVAPGEYAIQVCADAATVLEARTVTLAGDVVSRPLSMESTVGEWFSHPTVGPAFLEVLAGATGSAPTPDPQEHAGLLRMVESIRMAQFLTFLPIPVPQEKLDELLALGGTVANSATDAAAGNRDHPAPTPPGQPGGP | <3% | 17.2% | 2.1% |
| 4 (protein, listed as Microbacterium azadirachtae) MTLPPFDVDTVLAALTLEEKASLLSGLDDWYTQPLDRPGLPQRVPSIEVGDGPHGLRKETGVDMVWVPATGFPTASAMGASWDRQLMRRVAAAIGEEARAEGVQVVLGPGVNMKRSPLCGRNFEYFSEDPVHSGELGAAYVDGVQAVGVGTSLKHFAANNQEIERTRISVVADERTLRETYLSAFERVVTKADPWTVMCSYNRLLGVHASQNHWLLTEVLRDEWGYRGAVVSDWNAVHDRVAALRAGLDLEMPGTQGATDAEIVAAVQDGQLDIGVVDAAARRVLELVARAYPGADRVNGAVMDLGHAAGDRLTAEQLRLLRAAEHHELAREAAIGSMTLLRNETIPGGGGPALPLEEHSEGAVAVVGAFAEHARVQGGGSSGVDPTRIDAPLAAIRAIANGRVHYAPGYIYEVKNAYQDDNLAILAAHGVVTEEEKPRVARRSATLAKELQLAEAVQHLGKRPLSAAAERLIDEAAVIAGQAETIVVFAGLPLSYEQEANDRDTLALPADQVALILRMADVREKTGARLVVVLSNGSPVTMDPWHDRVDAIVEAWLGGQAVGSAVAEVLFGRSNPSGKLAETFPLALEDTPGFPNWLGERGTVLYGEGVFIGYRWYDALRREVRYPFGHGLSYTTFSYSDLRVDLVDAEVGRVTVTCTVTNTGDVAGQEVVQLYVGDPDAEVQRPLRELRGFEKVKIEAGESTRVRFELLNRDFAYWDSAAVRPDGKTGLWRREGGEFRIEVGASSRDIRLSESIVLSDDPSIPPLVPDAELLDIAASRFVQGHAG | – | 0.4% | 0.6% |
| 319 (protein, Colletotrichum gloeosporioides) MTAAPSDKELLALLSQLTTAEKVLLLSGKSTWETPEIERLHVPSLKVSDGPNGARGAQFTDGTTAACFPACVSLAATFNRSLARQIGVALGEETQTKGAYVLLGPTVCPHRSPLGGRNFESFSEDPFLTGELASEYVVGLQSQRVAATVKHFAINEQDTRRFTVNETVSERAMREIYLRPFEIVVKKADPWCIMTSYPKVNGAYVDDQTTFLKDILRDEWKFKGLVMTDWGAASAAIANGIRNGLDLEMPGPPHRRQPAVVHKLIEDGKVDVKDIDDRVLPLLKLLRQTGKFTDRREPVPERAISRPEHEKLIREAGGEGVVLLKNSDGALPLKPSHLQNIAVLGPLAKHAAAHGGGSASLNCHYKISPFDAIKSRLPDSKLSYSKGAHVFRAYPDFVAGTRNRLGNPGFAADFYENLNLTGEPFYTEEYPRGSFMTLMNENVVTAKSARLSTAYSPNVSGKHYLSFSGMGPARLFINGEFQGEIKETAEAMSFLLGVQEERHLQYDFVTGKTYDIVIESTISPNPNAELYLADDQIAVHLGFVSQQEMDADVLSEAVSFAKDADVALIFVGNTPQWETEGQDMATMTLPADGSQDKLIAEVAKVNPNTIVIITTGVPVELPWLENVAAVVQAWYGGQETGNSILDVLLGEVNPSGRLPMSWPKKNEHTACYGHFGLDSWDSREVEYVEGVNVGYRHFDSQYGTEQEVMFPFGYGLSYSTFEHSACALSGTLDANDENAKITVAVTVHNTSDVAGSEVVQVYVTPPKSRTGVERPPKALVAFEKIHLNPGAQKDIQLTFKRDGAAFWSEARKLWEVEAGEHEVHVSTSSSPQDIKSTLVLGITKGFTFHP | <3% | 10.2% | 0.4% |

— patent US20240026407A1, “MODIFICATION OF SAPONINS” (GLAXOSMITHKLINE BIOLOGICALS SA, priority 2020, published 2024)
